# In publication PMC11240982, “Recapitulation of HIV-1 Neutralization Breadth in Plasma by the Combination of Two Broadly Neutralizing Antibodies from Different Lineages in the Same SHIV-Infected Rhesus Macaque” (International Journal of Molecular Sciences, 2024):
# B1: JT18 (antibody, V domains shown)
# VH: EVQLVQSGAEVKRPGESLRISCKTSGYDFTDYWINWVRQMPGKGLEWVGMVYPSDSETAYSPSFRGRVTISADTSISTSYLQWTSLEASDTATYYCARPVSGTFALDVWGRGVLVAVSS
# VL: QSVLTQPPSMSGAPGQRVTMSCTGGNSNIGANLYVQWYQQVPGTAPRLLIYEDNQRPSGVSDRFSGSRSGSSASLTITGLQSEDEADYYCQSYDNSLSTVLFGGGTRLTVL
# notes: IGHV5-20*02, IGHJ5-2*02, IGHD1-44*02, CDR3 12 aa; constant region added, not specified; IGLV1S1*01, IGLJ3*01, CDR3 11 aa; Recombinant IgG; constant regions not specified (captured on anti-human IgG Fc biosensors, detected with anti-monkey IgG); source: HEK293T, co-transfected linear expression fragments, in supernatant (screen); Expi293F, co-transfected plasmids, purified (protein A agarose)
# Biological target: T1, BG505 Env UFO (uncleaved prefusion-optimized) trimer with Avi tag (HIV-1 clade A, BG505, stabilised)
# T1 construct: also called BG505 UFO trimer; BG505 UFO
# Assay: BLI; antibody (20 µg/mL) immobilised on Anti-hIgG-Fc Capture (AHC) biosensors; serially diluted BG505 UFO trimer or V3 peptide as analyte; OCTET Red96
# Settings: both partners purified
binder,measurement,value
B1,Kd,4.03 nM
